Measurements: patent US20220127628A1
Where “and” joins values, the source holds several entries; their conditions need not be identical. Equal values may be shown once.

Molecular target: recombinant NetB (wild type NetB) toxin of C. perfringens (Clostridium perfringens)
Assay: cell-based or functional assay

| Binder | lowest VHH concentration neutralizing NetB haemolysis |
| --- | --- |
| VHH ENB-1D11 (VHH) VHH: EVQLVESGGGLVQTGGSLRLSCTASGTIDMTYGLIWYRQAPGKERELVASIRRDGRTNYADSVKGRFTISIDNAKNSIHLQMNSLKPDDTARYYCNSPYHALWGQGTQVTVSS | 1.25 µM and 0.625 µM |
| VHH ENB-1A4 (VHH) VHH: EVQLVESGGGLVQAGGSLRLSCAASGSIFSTNVMGWYRQAPGKQREFVAGITIGGTARYPDSVKGRFTISRDNTQNTVYLQMNNLKPEDTAVYYCNAVLPSDQRRWSWGQGTQVTVSS | 1.25 µM and 0.625 µM |
